The source of these data is publication PMC10483858 (Molecular Cancer, 2023).

This experiment deals with T1, PD-L1 of the commercial HTRF PD-1/PD-L1 interaction assay.
T1 construct: PD-L1 as supplied in the Cisbio HTRF kit
Put plainly: AlphaScreen or HTRF; commercial HTRF PD-1/PD-L1 interaction assay (Cisbio, France); pAC65 varied; data fitted with Hill's model. As to conditions: both partners purified. (Bead proximity is the source of the signal in Alpha formats.)

Where no end group is shown, it is not given here. [ ]: non-standard residue; d: D form. TrpNAc = Trp with an acetic acid moiety; Hyp = O=C(O)[C@@H]1C[C@@H](O)CN1; NMeNle = CCCC[C@H](NC)C(=O)O; NMeA = CN[C@@H](C)C(=O)O; Dab = NCC[C@H](N)C(=O)O; Scc = not defined here

B1: pAC65 macrocyclic peptide (peptide)
chain: Y[NMeA]NP[Ala‑NH2]L[Hyp]W[Dab][TrpNAc][NMeNle][NMeNle]L[Scc]G-NH2
modifications: bridge (positions not given here); not fully specified (bridges); reading uncertain; also: macrocyclic ring, places not given here
As for B1, it took 1.8 ± 0.16 nM to reach half-maximal inhibition (IC50).

One may read the IC50 as the concentration that inhibits the measured activity by half. Read a low IC50 as greater potency in that assay.
